Laboratory results from publication PMC314469, “Protein Interaction Networks by Proteome Peptide Scanning” (PLoS Biology, 2004).

T1: Rvs167 SH3 (RV167_YEAST), P39743
T1 chain: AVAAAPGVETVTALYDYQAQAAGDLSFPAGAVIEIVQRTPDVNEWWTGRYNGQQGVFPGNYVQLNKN

T2: Myo5 SH3 (MYO5_YEAST), Q04439
T2 chain: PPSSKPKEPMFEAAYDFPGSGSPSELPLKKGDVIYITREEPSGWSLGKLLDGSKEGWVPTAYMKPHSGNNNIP

T3: Boi1 SH3 (BOI1_YEAST), P38041
T3 chain: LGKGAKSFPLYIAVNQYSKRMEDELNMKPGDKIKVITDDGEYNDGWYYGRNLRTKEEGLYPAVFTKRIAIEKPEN

T4: Boi2 SH3 (BOI2_YEAST), P39969
T4 chain: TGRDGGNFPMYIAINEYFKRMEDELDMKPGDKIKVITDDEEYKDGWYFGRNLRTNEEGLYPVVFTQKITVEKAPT

T5: Yhr016c SH3 (YSC84_YEAST), P32793
T5 chain: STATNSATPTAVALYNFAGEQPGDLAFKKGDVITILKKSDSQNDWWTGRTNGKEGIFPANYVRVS

T6: Yfr024 SH3 (LSB3_YEAST), P43603
T6 chain: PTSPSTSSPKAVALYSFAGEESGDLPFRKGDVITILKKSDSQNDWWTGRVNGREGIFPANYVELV

T7: Abp1 SH3 (ABP1_YEAST), P15891
T7 chain: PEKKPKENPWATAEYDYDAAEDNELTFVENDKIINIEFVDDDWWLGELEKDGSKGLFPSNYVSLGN

T8: YFR024C SH3 domain (Saccharomyces cerevisiae)
T8 chain: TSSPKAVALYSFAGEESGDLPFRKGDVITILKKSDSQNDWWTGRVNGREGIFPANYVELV

T9: YSC84 SH3 domain (Saccharomyces cerevisiae)
T9 chain: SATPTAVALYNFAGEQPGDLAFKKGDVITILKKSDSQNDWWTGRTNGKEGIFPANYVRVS

T10: BOI2 SH3 domain (Saccharomyces cerevisiae)
T10 chain: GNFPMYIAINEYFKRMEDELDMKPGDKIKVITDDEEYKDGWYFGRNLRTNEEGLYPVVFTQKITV

T11: GST-Abp1 SH3 domain (S. cerevisiae), P15891
T11 chain: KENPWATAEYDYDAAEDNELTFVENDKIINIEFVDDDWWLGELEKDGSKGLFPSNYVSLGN

T12: RVS167 SH3 domain (Saccharomyces cerevisiae)
T12 chain: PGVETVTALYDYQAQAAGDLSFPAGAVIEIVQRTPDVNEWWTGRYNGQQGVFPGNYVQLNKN


Columns and labels:
[1] = molecular target: Sho1 SH3 (SHO1_YEAST), P40073; assay: SPOT array
[2] = molecular target: T1, Rvs167 SH3 (RV167_YEAST), P39743; assay: SPOT array
[3] = molecular target: T2, Myo5 SH3 (MYO5_YEAST), Q04439; assay: SPOT array
[4] = molecular target: T3, Boi1 SH3 (BOI1_YEAST), P38041; assay: SPOT array
[5] = molecular target: T4, Boi2 SH3 (BOI2_YEAST), P39969; assay: SPOT array
[6] = molecular target: T5, Yhr016c SH3 (YSC84_YEAST), P32793; assay: SPOT array
[7] = molecular target: T6, Yfr024 SH3 (LSB3_YEAST), P43603; assay: SPOT array
[8] = molecular target: T7, Abp1 SH3 (ABP1_YEAST), P15891; assay: SPOT array
[9] = molecular target: T8, YFR024C SH3 domain (Saccharomyces …); assay: SPR; settings: modification not given
[10] = molecular target: T9, YSC84 SH3 domain (Saccharomyces …); assay: SPR; settings: modification not given
[11] = molecular target: T10, BOI2 SH3 domain (Saccharomyces …); assay: SPR; settings: modification not given
[12] = molecular target: T11, GST-Abp1 SH3 domain (S. cerevisiae), …; assay: SPR; settings: modification not given
[13] = molecular target: T12, RVS167 SH3 domain (Saccharomyces …); assay: SPR; settings: modification not given

Sho1 SH3 (SHO1_YEAST), P40073, sequence (P40073 295-366): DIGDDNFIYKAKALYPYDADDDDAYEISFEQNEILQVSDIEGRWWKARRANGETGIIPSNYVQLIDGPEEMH

| normalised SPOT signal, Boehringer light units (BLU); mean over the file's lines of this peptide [1] | normalised SPOT signal, Boehringer light units (BLU); mean over the file's lines of this peptide [2] | normalised SPOT signal, Boehringer light units (BLU); mean over the file's lines of this peptide [3] | normalised SPOT signal, Boehringer light units (BLU); mean over the file's lines of this peptide [4] | normalised SPOT signal, Boehringer light units (BLU); mean over the file's lines of this peptide [5] | normalised SPOT signal, Boehringer light units (BLU); mean over the file's lines of this peptide [6] | normalised SPOT signal, Boehringer light units (BLU); mean over the file's lines of this peptide [7] | normalised SPOT signal, Boehringer light units (BLU); mean over the file's lines of this peptide [8] | Kd [9] | Kd [10] | Kd [11] | Kd [12] | Kd [13] | Binder |
| --- | --- | --- | --- | --- | --- | --- | --- | --- | --- | --- | --- | --- | --- |
| 13.1 | 53.6 | 137 | 154 | 0 | 54.9 | 205 | 102 | – | – | – | – | – | ENTPRPNPTQPRKP [YDR359C 772-785] |
| – | – | – | – | – | – | – | – | 8.9 µM | 9.6 µM | > 100 µM | > 100 µM | – | RPLPQLPNRNNRPV |
| 86.4 | 68.7 | 382 | 412 | 37 | 150 | 751 | 1030 | – | – | – | – | – | KRNSKHAPFIPVKP [YPR095C 154-167] |
| 34.7 | 54.8 | 73.7 | 184 | 22.4 | 107 | 668 | 519 | – | – | – | – | – | EYSPRPSPWLPSKP [YDR151C 76-89] |
| – | – | – | – | – | – | – | – | – | – | > 100 µM | – | – | GTTNRGPPPLPPRA |
| – | – | – | – | – | – | – | – | > 100 µM | > 100 µM | > 100 µM | – | > 100 µM | DIKTRSVPKIPSIE [DEM1 peptide …] |
| 37.8 | 50.4 | 159 | 22.8 | 15.3 | 9.2 | 19.6 | 224 | – | – | – | – | – | LQESKTVPQSPKKP [YOR058C 189-202] |
| – | – | – | – | – | – | – | – | – | – | > 100 µM | – | – | NAPERAVPILPPRN |
| – | – | – | – | – | – | – | – | – | – | > 100 µM | – | – | RGPPPLPPRANVQP |
| – | – | – | – | – | – | – | – | – | – | – | > 100 µM | – | ASTKPEKPPVVKKP [INP52 peptide …] |
| 78.9 | 78.4 | 253 | 55.3 | 45.6 | 6.5 | 62.9 | 124 | – | – | – | – | – | LKDPKSFPPPPLKP [YBR108W 80-93] |
| 62.9 | 76.3 | 178 | 120 | 10.5 | 602 | 3610 | 184 | – | – | – | – | – | VASSRTEPSTPSRP [YJL095W 1074-1087] |
| 44.7 | 68.4 | 210 | -0 | -0 | 15.9 | 242 | 224 | – | – | – | – | – | YTYSRNEPVIPTKP [YNL139C 1275-1288] |
| – | – | – | – | – | – | – | – | 22 µM | 16 µM | > 100 µM | > 100 µM | 39 µM | NQPDLPPRKIMIP [YBR239C peptide …] |
| – | – | – | – | – | – | – | – | – | – | > 100 µM | – | 32 µM | PQQNRPLPQLPNRN |
| – | – | – | – | – | – | – | – | – | 13 µM | > 100 µM | – | 39 µM | RAVPILPPRNNVEP |
| 23.8 | 28 | 91.3 | 49.7 | 8.7 | 22.4 | 17 | 42.5 | – | – | – | – | – | VKPTKLEPENPQKP [YFL054C 234-247] |
